Results taken from US20220372155A1 (LYVGEN BIOPHARMA, published 2022).

These binders were tested against T1, human CD40 expressed on CHO cells (human, UniProt P25942 21-277) (assay: FACS, CHO cells).
T1 construct: whole, on cells; also used for the reporter cells over-expressing human CD40; also called cellular CD40; CHO-CD40 cells
T1 sequence (P25942 21-277): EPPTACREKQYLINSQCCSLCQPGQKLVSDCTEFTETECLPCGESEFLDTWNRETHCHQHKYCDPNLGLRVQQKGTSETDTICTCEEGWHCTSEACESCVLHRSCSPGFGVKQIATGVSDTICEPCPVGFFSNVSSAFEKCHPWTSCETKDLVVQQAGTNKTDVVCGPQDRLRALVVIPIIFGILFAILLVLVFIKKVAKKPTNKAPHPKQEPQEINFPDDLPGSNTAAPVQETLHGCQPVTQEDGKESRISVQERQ

| Binder | binding result |
| --- | --- |
| Ly802 (bispecific antibody, human IgG1, kappa, Ly383 HC (IgG1 mutated Fc) + Ly383 LC-TM740 scFv VH-VL) heavy: EVQLQQSGPELVKPGASVKMSCKASGYTFTSYVMHWVKQKPGQGLEWIGYINPYNDGTECTDKFKGKATLTSDKSSSTAYMELSSLTSEDSAVYYCASIYYGYDGTYFGVWGAGTSVTVSSASTKGPSVFPLAPSSKSTSGGTAALGCLVKDYFPEPVTVSWNSGALTSGVHTFPAVLQSSGLYSLSSVVTVPSSSLGTQTYICNVNHKPSNTKVDKKVEPKSCDKTHTCPPCPAPELLGPSVFLFPPKPKDTLMISRTPEVTCVVVDVSHEDPEVKFNWYVDGVEVHNAKTKPREEQYNSTYRVVSVLTVLHQDWLNGKEYKCKVSNKALPAPIEKTISKAKGQPREPQVYTLPPSREEMTKNQVSLTCLVKGFYPSDIAVEWESNGQPENNYKTTPPVLDSDGSFFLYSKLTVDKSRWQQGNVFSCSVMHEALHNHYTQKSLSLSPG light: QIVLSQSPAILSTSPGEKVTMTCRASSSVSYMHWYQQKPGSSPKPWIYATSNLASGVPARFSGSRSGTSYSLTISRVEAEDAATYYCQQWSSNTLTFGGGTKLELKRTVAAPSVFIFPPSDEQLKSGTASVVCLLNNFYPREAKVQWKVDNALQSGNSQESVTEQDSKDSTYSLSSTLTLSKADYEKHKVYACEVTHQGLSSPVTKSFNRGECGGGGSGGGGSGGGGSGGGGSQVQLVESGGGLVQPGGSLKLSCATSGFNFNDYFMNWVRQASGKGLEWVGQIRNKNYNYATYYTESLEGRVTISRDDSKNTAYLQMNSLKTEDTAVYYCTSYYYDGFADYFDYWGQGTTVTVSSGGGGSGGGGSGGGGSGGGGSDIQMTQSPSSLSASVGDRVTITCKASQNIYIYLNWYQQKPGKAPKLLIYNTNNLQTGVPSRFSGSGSGTDFTLTISSLQPEDFATYYCLQHSSRRTFGGGTKVEIK | binds |
| Ly803 (bispecific antibody, human IgG1, kappa, Ly383 HC (IgG1 mutated Fc) + Ly383 LC-TM559 scFv VL-VH) heavy: EVQLQQSGPELVKPGASVKMSCKASGYTFTSYVMHWVKQKPGQGLEWIGYINPYNDGTECTDKFKGKATLTSDKSSSTAYMELSSLTSEDSAVYYCASIYYGYDGTYFGVWGAGTSVTVSSASTKGPSVFPLAPSSKSTSGGTAALGCLVKDYFPEPVTVSWNSGALTSGVHTFPAVLQSSGLYSLSSVVTVPSSSLGTQTYICNVNHKPSNTKVDKKVEPKSCDKTHTCPPCPAPELLGPSVFLFPPKPKDTLMISRTPEVTCVVVDVSHEDPEVKFNWYVDGVEVHNAKTKPREEQYNSTYRVVSVLTVLHQDWLNGKEYKCKVSNKALPAPIEKTISKAKGQPREPQVYTLPPSREEMTKNQVSLTCLVKGFYPSDIAVEWESNGQPENNYKTTPPVLDSDGSFFLYSKLTVDKSRWQQGNVFSCSVMHEALHNHYTQKSLSLSPG light: QIVLSQSPAILSTSPGEKVTMTCRASSSVSYMHWYQQKPGSSPKPWIYATSNLASGVPARFSGSRSGTSYSLTISRVEAEDAATYYCQQWSSNTLTFGGGTKLELKRTVAAPSVFIFPPSDEQLKSGTASVVCLLNNFYPREAKVQWKVDNALQSGNSQESVTEQDSKDSTYSLSSTLTLSKADYEKHKVYACEVTHQGLSSPVTKSFNRGECGGGGSGGGGSGGGGSGGGGSDIQMTQSPSSLSASVGDRVTITCLASEDISNDLAWYQQKPGKAPKLLIYFVDRLLDGVPSRFSGSGSGTDFTLTISSLQPEDFATYYCQQSYKYPPTFGQGTKLEIKGGGGSGGGGSGGGGSGGGGSEVQLVESGGGLVQPGGSLRLSCAASGFTFTNYGLHWVRQAPGKGLEWVSSISPSGGVTYYRDSVKGRFTISRDNSKNTLYLQMNSLRAEDTAVYYCAKPFLGWGGANWIAHWGQGTLVTVSS | binds |
| Ly804 (bispecific antibody, human IgG1, kappa, Ly383 HC (IgG1 mutated Fc) + Ly383 LC-TM559 scFv VH-VL) heavy: EVQLQQSGPELVKPGASVKMSCKASGYTFTSYVMHWVKQKPGQGLEWIGYINPYNDGTECTDKFKGKATLTSDKSSSTAYMELSSLTSEDSAVYYCASIYYGYDGTYFGVWGAGTSVTVSSASTKGPSVFPLAPSSKSTSGGTAALGCLVKDYFPEPVTVSWNSGALTSGVHTFPAVLQSSGLYSLSSVVTVPSSSLGTQTYICNVNHKPSNTKVDKKVEPKSCDKTHTCPPCPAPELLGPSVFLFPPKPKDTLMISRTPEVTCVVVDVSHEDPEVKFNWYVDGVEVHNAKTKPREEQYNSTYRVVSVLTVLHQDWLNGKEYKCKVSNKALPAPIEKTISKAKGQPREPQVYTLPPSREEMTKNQVSLTCLVKGFYPSDIAVEWESNGQPENNYKTTPPVLDSDGSFFLYSKLTVDKSRWQQGNVFSCSVMHEALHNHYTQKSLSLSPG light: QIVLSQSPAILSTSPGEKVTMTCRASSSVSYMHWYQQKPGSSPKPWIYATSNLASGVPARFSGSRSGTSYSLTISRVEAEDAATYYCQQWSSNTLTFGGGTKLELKRTVAAPSVFIFPPSDEQLKSGTASVVCLLNNFYPREAKVQWKVDNALQSGNSQESVTEQDSKDSTYSLSSTLTLSKADYEKHKVYACEVTHQGLSSPVTKSFNRGECGGGGSGGGGSGGGGSGGGGSEVQLVESGGGLVQPGGSLRLSCAASGFTFTNYGLHWVRQAPGKGLEWVSSISPSGGVTYYRDSVKGRFTISRDNSKNTLYLQMNSLRAEDTAVYYCAKPFLGWGGANWIAHWGQGTLVTVSSGGGGSGGGGSGGGGSGGGGSDIQMTQSPSSLSASVGDRVTITCLASEDISNDLAWYQQKPGKAPKLLIYFVDRLLDGVPSRFSGSGSGTDFTLTISSLQPEDFATYYCQQSYKYPPTFGQGTKLEIK | binds |
| Ly805 (bispecific antibody, human IgG1, kappa, Ly387 HC (IgG1 mutated Fc) + Ly387 LC-TM740 scFv VL-VH) heavy: QVQLQQPGAELVKPGASVKLSCKASGYTFTSYWMHWVKQRPGQGLEWIGMIHPNSGGTNYNEKFKGKGTLTVDKSSSTAYMQLSSLTSDDSAVYYCVTSQATWFAYWGQGTLVTVSAASTKGPSVFPLAPSSKSTSGGTAALGCLVKDYFPEPVTVSWNSGALTSGVHTFPAVLQSSGLYSLSSVVTVPSSSLGTQTYICNVNHKPSNTKVDKKVEPKSCDKTHTCPPCPAPELLGPSVFLFPPKPKDTLMISRTPEVTCVVVDVSHEDPEVKFNWYVDGVEVHNAKTKPREEQYNSTYRVVSVLTVLHQDWLNGKEYKCKVSNKALPAPIEKTISKAKGQPREPQVYTLPPSREEMTKNQVSLTCLVKGFYPSDIAVEWESNGQPENNYKTTPPVLDSDGSFFLYSKLTVDKSRWQQGNVFSCSVMHEALHNHYTQKSLSLSPG light: ENVLTQSPAIMSVSPGEKVTMTCRASSSVSSSYLHWYQQKSGASPKFWIYSTSNLASGVPARFSGSGSGTSYSLTISSVEAEDAATYYCQHYSGYPLTFGAGTKLELRRTVAAPSVFIFPPSDEQLKSGTASVVCLLNNFYPREAKVQWKVDNALQSGNSQESVTEQDSKDSTYSLSSTLTLSKADYEKHKVYACEVTHQGLSSPVTKSFNRGECGGGGSGGGGSGGGGSGGGGSDIQMTQSPSSLSASVGDRVTITCKASQNIYIYLNWYQQKPGKAPKLLIYNTNNLQTGVPSRFSGSGSGTDFTLTISSLQPEDFATYYCLQHSSRRTFGGGTKVEIKGGGGSGGGGSGGGGSGGGGSQVQLVESGGGLVQPGGSLKLSCATSGFNFNDYFMNWVRQASGKGLEWVGQIRNKNYNYATYYTESLEGRVTISRDDSKNTAYLQMNSLKTEDTAVYYCTSYYYDGFADYFDYWGQGTTVTVSS | binds |
| Ly807 (bispecific antibody, human IgG1, kappa, Ly387 HC (IgG1 mutated Fc) + Ly387 LC-TM559 scFv VL-VH) heavy: QVQLQQPGAELVKPGASVKLSCKASGYTFTSYWMHWVKQRPGQGLEWIGMIHPNSGGTNYNEKFKGKGTLTVDKSSSTAYMQLSSLTSDDSAVYYCVTSQATWFAYWGQGTLVTVSAASTKGPSVFPLAPSSKSTSGGTAALGCLVKDYFPEPVTVSWNSGALTSGVHTFPAVLQSSGLYSLSSVVTVPSSSLGTQTYICNVNHKPSNTKVDKKVEPKSCDKTHTCPPCPAPELLGPSVFLFPPKPKDTLMISRTPEVTCVVVDVSHEDPEVKFNWYVDGVEVHNAKTKPREEQYNSTYRVVSVLTVLHQDWLNGKEYKCKVSNKALPAPIEKTISKAKGQPREPQVYTLPPSREEMTKNQVSLTCLVKGFYPSDIAVEWESNGQPENNYKTTPPVLDSDGSFFLYSKLTVDKSRWQQGNVFSCSVMHEALHNHYTQKSLSLSPG light: ENVLTQSPAIMSVSPGEKVTMTCRASSSVSSSYLHWYQQKSGASPKFWIYSTSNLASGVPARFSGSGSGTSYSLTISSVEAEDAATYYCQHYSGYPLTFGAGTKLELRRTVAAPSVFIFPPSDEQLKSGTASVVCLLNNFYPREAKVQWKVDNALQSGNSQESVTEQDSKDSTYSLSSTLTLSKADYEKHKVYACEVTHQGLSSPVTKSFNRGECGGGGSGGGGSGGGGSGGGGSDIQMTQSPSSLSASVGDRVTITCLASEDISNDLAWYQQKPGKAPKLLIYFVDRLLDGVPSRFSGSGSGTDFTLTISSLQPEDFATYYCQQSYKYPPTFGQGTKLEIKGGGGSGGGGSGGGGSGGGGSEVQLVESGGGLVQPGGSLRLSCAASGFTFTNYGLHWVRQAPGKGLEWVSSISPSGGVTYYRDSVKGRFTISRDNSKNTLYLQMNSLRAEDTAVYYCAKPFLGWGGANWIAHWGQGTLVTVSS | binds |
| Ly806 (bispecific antibody, human IgG1, kappa, Ly387 HC (IgG1 mutated Fc) + Ly387 LC-TM740 scFv VH-VL) heavy: QVQLQQPGAELVKPGASVKLSCKASGYTFTSYWMHWVKQRPGQGLEWIGMIHPNSGGTNYNEKFKGKGTLTVDKSSSTAYMQLSSLTSDDSAVYYCVTSQATWFAYWGQGTLVTVSAASTKGPSVFPLAPSSKSTSGGTAALGCLVKDYFPEPVTVSWNSGALTSGVHTFPAVLQSSGLYSLSSVVTVPSSSLGTQTYICNVNHKPSNTKVDKKVEPKSCDKTHTCPPCPAPELLGPSVFLFPPKPKDTLMISRTPEVTCVVVDVSHEDPEVKFNWYVDGVEVHNAKTKPREEQYNSTYRVVSVLTVLHQDWLNGKEYKCKVSNKALPAPIEKTISKAKGQPREPQVYTLPPSREEMTKNQVSLTCLVKGFYPSDIAVEWESNGQPENNYKTTPPVLDSDGSFFLYSKLTVDKSRWQQGNVFSCSVMHEALHNHYTQKSLSLSPG light: ENVLTQSPAIMSVSPGEKVTMTCRASSSVSSSYLHWYQQKSGASPKFWIYSTSNLASGVPARFSGSGSGTSYSLTISSVEAEDAATYYCQHYSGYPLTFGAGTKLELRRTVAAPSVFIFPPSDEQLKSGTASVVCLLNNFYPREAKVQWKVDNALQSGNSQESVTEQDSKDSTYSLSSTLTLSKADYEKHKVYACEVTHQGLSSPVTKSFNRGECGGGGSGGGGSGGGGSGGGGSQVQLVESGGGLVQPGGSLKLSCATSGFNFNDYFMNWVRQASGKGLEWVGQIRNKNYNYATYYTESLEGRVTISRDDSKNTAYLQMNSLKTEDTAVYYCTSYYYDGFADYFDYWGQGTTVTVSSGGGGSGGGGSGGGGSGGGGSDIQMTQSPSSLSASVGDRVTITCKASQNIYIYLNWYQQKPGKAPKLLIYNTNNLQTGVPSRFSGSGSGTDFTLTISSLQPEDFATYYCLQHSSRRTFGGGTKVEIK | binds |
